One block for each binder: values may come before it. Starred links: 1 amine or outer side, 2 acyl side, 3 side chain; linkers in the order of their positions; H or OH if unused. Positions of bridges follow the written chain, without caps; N, C: chain ends. Non-standard residues stand in square brackets, D forms with d. Primed or numbered codes have the meaning given here. No end group written: not given here. *: point of attachment. Af3(2Py6SaNH) = 3-amino-L-phenylalanine, ring amine acylated by 6-(sulfamoylamino)pyridine-2-carboxylic acid, NS(=O)(=O)Nc1cccc(C(=O)Nc2cccc(C[C@H](N[*:1])C(=O)[*:2])c2)n1; Af3(TzPr) = 3-amino-L-phenylalanine acylated on the ring amine with 3-(1H-1,2,4-triazol-3-yl)propanoic acid, O=C(CCc1nc[nH]n1)Nc1cccc(C[C@H](N[*:1])C(=O)[*:2])c1; Af3(Ac-Glu) = 3-aminophenylalanine acylated on the ring amine with N-acetyl-glutamic acid, CC(=O)N[C@@H](CCC(=O)[*:3])C(=O)Nc1cccc(C[C@H](N[*:1])C(=O)[*:2])c1; Af3(HO-Succinyl) = 3-aminophenylalanine with succinyl (free acid) on the ring amine, O=C(CCC(=O)[*:3])Nc1cccc(C[C@H](N[*:1])C(=O)[*:2])c1; Eem = S-benzyl-cysteine-sulfone, O=C([C@H](CS(=O)(=O)Cc1ccccc1)N[*:1])[*:2]; APAc″ = 2-(4-(amino)piperidin-1-yl)acetic acid, NC1CCN(CC(=O)*)CC1; DOTA = O=C(O)CN1CCN(CC(=O)O)CCN(CC(=O)*)CCN(CC(=O)O)CC1; PPAc = 4-carboxymethyl piperazine linker; mXylylene = c1cc(C[*:1])cc(C[*:2])c1; tBuAla = CC(C)(C)C[C@H](N)C(=O)O; NMeD = CN[C@@H](CC(=O)O)C(=O)O; hSer = N[C@@H](CCO)C(=O)O; APAc = not defined here; Dap = NC[C@H](N)C(=O)O; Ttds″ = Ttds spacer
How the values were obtained:
[1] = molecular target: T1, Fc-fusion protein of human carbonic anhydrase IX (human, UniProt Q16790 38-414); experiment: SPR, captured hCAIX-Fc; pKD category A: >8.0
Method: (§1) Stock solutions of test compounds were prepared by dissolving each compound in DMSO. DMSO stock solution were diluted 1:1000 in Running Buffer without DMSO. […] SPR binding analyses were performed in Single Cycle Kinetic (SCK) mode at 25° C.
(§2) For each test compound, SPR raw data in the form of resonance units (RU) were plotted as sensorgrams using the Biacore™ T200 control software. The signal from the blank sensorgram was subtracted from that of the test compound sensorgram (blank corrected). The blank corrected sensorgram was corrected for baseline drift by subtracting the sensorgram of a SCK run without the test compound (running buffer only). […] Raw data and fit results were imported as text files in IDBS. The pKD value (negative decadic logarithm of dissociation constant) was calculated in the IDBS excel template.

[2] = molecular target: T1, Fc-fusion protein of human carbonic …; experiment: SPR, captured hCAIX-Fc; t1/2 category A: >15.0 min
Method: as §1, §2

[3] = molecular target: T1, Fc-fusion protein of human carbonic …; experiment: SPR, captured hCAIX-Fc; t1/2 category B: 5.1-15.0 min
Method: as §1, §2

B2: 3BP-4102 (peptide)
peptide: {DOTA-APAc}-VYCE[dP][hSer]WLTWSC-NH2
modifications: linker 3-12 via mXylylene; reading uncertain
pKD [1]: > 8 pkd | t1/2 (half-life of the complex, SPR) [2]: > 15 min

B7: 3BP-3279 (peptide)
peptide: {DOTA-Ttds″}-VYCE[dA]DWLTWAC-NH2
modifications: linker 3-12 via mXylylene; not fully specified
pKD [1]: > 8 pkd | t1/2 (half-life of the complex, SPR) [3]: 5.1 to 15 min

B8: 3BP-4142 (peptide)
peptide: {DOTA-APAc″}-VYCE[dP]DW[tBuAla]TWSC-NH2
modifications: linker 3-12 via mXylylene
pKD [1]: > 8 pkd | t1/2 (half-life of the complex, SPR) [2]: > 15 min

B9: 3BP-4237 (peptide)
peptide: {DOTA-APAc″}-VYCE[dP]D[Af3(HO-Succinyl)]LTWSC-NH2
modifications: linker 3-12 via mXylylene
pKD [1]: > 8 pkd | t1/2 (half-life of the complex, SPR) [2]: > 15 min

B10: 3BP-4123 (peptide)
peptide: {DOTA-APAc}-VYCE[dP][Eem]WLTWSC-NH2
modifications: linker 3-12 via mXylylene; not fully specified; reading uncertain
pKD [1]: > 8 pkd | t1/2 (half-life of the complex, SPR) [2]: > 15 min

B11: 3BP-4107 (peptide)
peptide: {DOTA-APAc}-VYCE[dP][NMeD]WLTWSC-NH2
modifications: linker 3-12 via mXylylene; reading uncertain
pKD [1]: > 8 pkd | t1/2 (half-life of the complex, SPR) [2]: > 15 min

B12: 3BP-4175 (peptide)
peptide: {DOTA-APAc″}-VECE[dP]DWLTW[Dap]C-NH2
modifications: lactam 2-11; linker 3-12 via mXylylene
pKD [1]: > 8 pkd | t1/2 (half-life of the complex, SPR) [2]: > 15 min

Continued, values first:

pKD [1]: > 8 pkd | t1/2 (half-life of the complex, SPR) [2]: > 15 min
B1: 3BP-4337 (peptide)
peptide: VDCE[dP]DWLTW[Dap]C-NH2
modifications: lactam 2-11; linker 3-12 via mXylylene; not fully specified (N-terminus); also: indium complexed by DOTA

pKD [1]: > 8 pkd | t1/2 (half-life of the complex, SPR) [2]: > 15 min
B3: 3BP-4361 (peptide)
peptide: {DOTA-APAc″}-VYCE[dP]D[Af3(Ac-Glu)]LTWSC-NH2
modifications: linker 3-12 via mXylylene

t1/2 (half-life of the complex, SPR) [3]: 5.1 to 15 min
B4: 3BP-4514 (peptide)
peptide: {DOTA-PPAc}-QCE[dP]D[Af3(2Py6SaNH)]LTWSC-NH2
modifications: linker 2-11 via mXylylene

pKD [1]: > 8 pkd | t1/2 (half-life of the complex, SPR) [2]: > 15 min
B5: 3BP-4324 (peptide)
peptide: {DOTA-APAc″}-VYCE[dP]D[Af3(TzPr)]LTWSC-NH2
modifications: linker 3-12 via mXylylene

pKD [1]: > 8 pkd | t1/2 (half-life of the complex, SPR) [2]: > 15 min
B6: 3BP-4264 (peptide)
peptide: {DOTA}-VDCE[dP]DWLTW[Dap]C-NH2
modifications: lactam 2-11; linker 3-12 via mXylylene
SMILES: CC(C)C[C@@H]1NC(=O)[C@H](Cc2c[nH]c3ccccc23)NC(=O)[C@H](CC(=O)O)NC(=O)[C@H]2CCCN2C(=O)[C@H](CCC(=O)O)NC(=O)[C@@H]2CSCc3cccc(c3)CSC[C@@H](C(N)=O)NC(=O)[C@H](CNC(=O)C[C@H](NC(=O)[C@@H](NC(=O)CN3CCN(CC(=O)O)CCN(CC(=O)O)CCN(CC(=O)O)CC3)C(C)C)C(=O)N2)NC(=O)[C@H](Cc2c[nH]c3ccccc23)NC(=O)[C@H]([C@@H](C)O)NC1=O

Source: patent US20250339569A1 (3B PHARMACEUTICALS, published 2025)
